In the supplement of paper PMC9170038:

Test system: MS2 coat protein
Assay: apparent KD of MS2 coat protein; designed switch direction (-1 OFF switch, 1 ON switch): -1; higher = weaker reporter binding
In short: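 Stalled E. coli RNA polymerase transcribed designed RNA switches on Illumina chips, which were then titrated with SNAP-549-labelled MS2 coat protein, doubling from 0.7 or 1.5 nM to 3 µM. Steps lasted from 0.8–1.5 h at the lowest concentration to 10–20 min at the highest. The apparent KD is each design's median over clusters of curve-fitted normalised fluorescence.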

[1] = input ligand: microRNA oligo, concentration not stated
[2] = Eterna round: R95, input ligand: FMN 200 uM
[3] = Eterna round: R95, input ligand: microRNA oligo, concentration not stated
[4] = Eterna round: R95, input ligand: none

| Sequence | apparent KD of MS2 coat protein (input ligand: FMN 200 uM) [nM] | apparent KD of MS2 coat protein [1] [nM] | apparent KD of MS2 coat protein (input ligand: none) [nM] | apparent KD of MS2 coat protein [2] [nM] | apparent KD of MS2 coat protein [3] [nM] | apparent KD of MS2 coat protein [4] [nM] |
| --- | --- | --- | --- | --- | --- | --- |
| UACAUGAGGAUCACCCAUGUUUUGUCGUGUAUGGUAUUUAUCUAGGAUAUCAAUGGAUUUAUUUAUGAGAAGGAGAAUAUUAAU [JMF's solution 38] (Eterna round: R96, puzzle: Exclusion NG 3) | 39.6 | 25.6 | 32.3 | – | – | – |
| UAUUAAACAUAGGAUAUCGAAUAUAUCAUUUAACGAGAAGGAUGAACAUGAGGAUCACCCAUGUGGUAUCAUGG [Mat - Exclusion 6 - JL Mod - D13] (puzzle: Exclusion 6) | – | – | – | 196 | 269 | 410 |
| ACGCAUUGCCUUUGGUAGUGCGUAACAUGAGGAUCACCCAUGUAGGAUAUGGUAGGCUUUGCUUACCAGAAGGACAUUAUAAUC [Mat - Exclusion NG 3 - Mod of JL - D8] (Eterna round: R96, puzzle: Exclusion NG 3) | 65 | 18.5 | 25.1 | – | – | – |
| AGCCAUACAGGAUAUGCCCGGGAUAACAUGAGGAUCACCCAUGUGACCGAUUCAUGUCCUGCAGAAGGGUAUGGGA [Mod of ViennaUCT 3 - Jieux - Exclusion 5] (Eterna round: R97, puzzle: Exclusion 5) | 31.7 | – | 16.8 | – | – | – |
| UUUCGUGUGCGGGCUUUUUACAUGAGGAUCACCCAUGUCCUCUGCUUGUCUUGUCUUGGGCUUUUUUUGGGUUCGGG [-19.4, -42 kcal, A 8%] (Eterna round: R97, puzzle: Sensor, turn-off variant 1) | 560 | – | 836 | – | – | – |
| CUGGUCCGAGGAUAUAUUAUGUGAUACAUGAGGAUCACCCAUGUUAUAUGAUGGAUGUUAGUAGAAGGCGGACUAG [JL-ex5-3.21] (puzzle: Exclusion 5) | – | – | – | 102 | 57.3 | 59.9 |
| GCUUGUGCCCUAGGAUAUCGCCCAGCCAAUGGAUGAGAAGGAGGCGGGUGAAACAUGAGGAUCACCCAUGUAAACGCACAGGCG [Erdiusbi] (Eterna round: R96, puzzle: Exclusion NG 1) | 189 | 18 | 21.9 | – | – | – |
| GACACCAAAGGAUAUACAUGAGGAUCACCCAUGUGCUGCAAAAGCUGAGCUCAAAUGUGUAGAAGGUUGAAAUA [Eternabot (Original) Solution 40] (Eterna round: R97, puzzle: Exclusion 3) | 39 | – | 31.6 | – | – | – |
| UGUUCGUCAGGAUAUUCUACUUAUUACAUGAGGAUCACCCAUGUGUAUGUACAAGGGUGUGAAGAAGGGACUUGUC [LRO-Excl5-07-mod A17d by Omei] (Eterna round: R97, puzzle: Exclusion 5) | 331 | – | 1240 | – | – | – |
| AAAGUGUGAGGAUAUUAGUUGUACGUCAAUAGACGUAUAAGUGAGAAGGCACAUGAGGAUCACCCAUGUUCCUG [Omei Ex4 Mod of Mat's R95 mod of Omei v5] (Eterna round: R97, puzzle: Exclusion 4) | 99.7 | – | 21.9 | – | – | – |
| GGAUAGUGAGGAUAUACCCAGAUUGAUGGACACGUCAGCGGGUAGAAGGCACAUGAGGAUCACCCAUGUGGCCU [Eternabot (L1) Solution 22] (Eterna round: R97, puzzle: Exclusion 4) | 18.4 | – | 14.1 | – | – | – |
| CGUGCGUAUGUGAGGAUAUGCUGGUCCUUGGAUCGGCAGAAGGCACAUGAGGAUCACCCAUGUGGUGUCGUCCA [salish99_Bmod_ex4_089] (puzzle: Brourd's mod of Exclusion 4) | – | – | – | – | 85.7 | – |
| GAGGCAUGCCUAGGUCCACACAUGAGGAUCACCCAUGUAAUGACAGGCUUUUUACUCGUUUUAUCGCUAUCGCGUUC [Enaor] (puzzle: Sensor v3, turn-off variant 1) | – | – | – | 13.2 | 20.7 | 11.8 |
| CAUGGUUAACGAUUAUUCAACAUGAGGAUCACCCAUGUCUCUUUUUCUUUUUGCUCGUCUUAUCCUCCUUUGUUCAC [JR_STOV1_v2_Sub0102] (Eterna round: R97, puzzle: Sensor, turn-off variant 1) | 379 | – | 412 | – | – | – |
| UAUAAGAUAGGAUAUACAGGCCCGUCUUCAUAUCGAUCCCGACAUGAGGAUCACCCAUGUAGAAGGAUCGUGAG [Mod 21 - Jieux - Exclusion 2] (Eterna round: R97, puzzle: Exclusion 2) | 13.8 | – | 13.7 | – | – | – |
| CGUGACUAAGGAUAUACAUGAGGAUCACCCAUGUGAUUCAAGAUUUUCGACUGGAGAGGUAGAAGGUGGAUGCC [Eternabot (L1) Solution 99] (Eterna round: R97, puzzle: Exclusion 3) | 63.3 | – | 94.4 | – | – | – |
| ACGAGCUUUUUGCUCGUUUACAUGAGGAUCACCCAUGUGUCUUCGCGCCCGGGCCCGGGCGGGCCCGGGCCCGGGCG [-52.9, -56.9, A 10%] (Eterna round: R97, puzzle: Sensor, turn-off variant 1) | 50.6 | – | 57.6 | – | – | – |
| UAAGGACAUGAGGAUCACCCAUGUUAGGAUAUGCCGAGGGAGACCCGUGUUGACACUUGCAGAAGGAGUAUGGG [Eternabot (L1) Solution 25] (Eterna round: R97, puzzle: Exclusion 1) | 70.4 | – | 86.2 | – | – | – |
| UAUUAGCAAGCGAGAUCCGACAUGAGGAUCACCCAUGUGCUCGUCUUAUAAGGGAGGGAGGGAAAACCCUCCCUCCC [Elimod 9 - Jieux - Sensor, turn-off variant 1] (Eterna round: R97, puzzle: Sensor, turn-off variant 1) | 19.5 | – | 21.2 | – | – | – |
| GAAGUAUGAGUUAGGAUAUGAUGAUUUUUAUUAAAUCAGAAGGAACUUGAGGAUCACCCAAGUAAAGAAUUGGU [JR_BMEx4_Sub070] (Eterna round: R97, puzzle: Brourd's mod of Exclusion 4) | 16.1 | – | 15.6 | – | – | – |
| AGCAUGCAGUAGGAUAUCGAUCCGCAAUAUGAACGAGAAGGGCUGACAUGAGGAUCACCCAUGUGCGUCCUAGG [jl-ex6-4.40 ViennaUCT mod] (Eterna round: R97, puzzle: Exclusion 6) | 19.4 | – | 20.2 | – | – | – |
| AAUUAACAUCAGGAUAUGACUAGCUUCGGCUAGUCAGAAGGGAUGACAUGAGGAUCACCCAUGUGAUCAAUUAA [E6/2-A1] (Eterna round: R97, puzzle: Exclusion 6) | 127 | – | 134 | – | – | – |
| AGUGUGUGGCAGGAUAUUCCGGUCGUUGGUCGGGAAGAAGGGUCUACAUGAGGAUCACCCAUGUGAGCGGUUGA [Ex6 #50] (Eterna round: R97, puzzle: Exclusion 6) | 489 | – | 379 | – | – | – |
| CAGCUGAAAGUGAGGAUAUCUAGAGCGAUAGCUCUAGAGAAGGCACAUGAGGAUCACCCAUGUGAUCACAGCUG [BmEx4/7-A4] (Eterna round: R97, puzzle: Brourd's mod of Exclusion 4) | 1320 | – | 249 | – | – | – |
| UUUUACUUAGGAUAUACAUUUUUUUAUUUAUUUAUAAUAUUACAUGAGGAUCACCCAUGUAGAAGGGAGAUUUU [My Design] (puzzle: Exclusion 2) | – | – | – | – | 78.1 | – |
